Experimental data: doi:10.1101/2023.02.11.528150 (bioRxiv, 2023)
“And” between values parts separate entries of the source, which are not always exact repeats. Identical values can stand only once. Like-named read-outs stand apart in the source and are kept apart here.

B1: KKO monoclonal anti-PF4/heparin antibody (antibody, V domains shown)
VH: VQLQQSGAELVKPGASVKLSCKASGYTFTNYFIYWVKQRPGQGLEWIGEINPRNGDTDFNEKFESRATLTVDKSSSTAYMQLSSLTSEDSAIYYCTRSPYGNNYGFTYWGQGTLVTVSA
VL: DIQMIQSQKFMSTSVGDRVTVTCKASQNVGTNVAWYQQKPGQSPNALIYSASYRYSGVPDRFTGSGSGTDFTLTITNVQSEDLADYFCQQYNSYPLTFGTGTKLDLK
B2: recombinant form of human platelet factor 4 (PF4), tetramer (natural protein)
chain: EAEEDGDLQCLCVKTTSQVRPRHITSLEVIKAGPHCPTAQLIATLKNGRKICLDLQAPLYKKIIKKLLES

Columns and labels:
Test in all cases: native MS
[1] = molecular target: T1, recombinant form of human platelet factor 4 (PF4), tetramer (human, UniProt P02776)
[2] = molecular target: T1, recombinant form of human platelet …; remark: listed apart in the source
[3] = molecular target: the molecule itself

| Binder | stoichiometry N [1] | stoichiometry N [2] | stoichiometry N [3] |
| --- | --- | --- | --- |
| B1 | 1 PF4 tetramer (with dp20) per KKO and 2 PF4 tetramers (with dp20) per KKO | 1 KKO per complex of two PF4 tetramers on one heparin chain and 2 KKO per complex of three PF4 tetramers on one heparin chain | – |
| B2 | – | – | 4 chains per oligomer |
